Measurements from patent US9504759B2, “Surface modified proteinaceous spherical particles and uses thereof” (BAR-ILAN UNIVERSITY, priority 2011, dated 2016).
Square brackets hold non-standard residues; d marks the D form. Ends that are not written are not given here. Peptide text beside a SMILES is read from it. Nle = CCCC[C@H](N)C(=O)O

Tests used:
Aβ40 [1] = molecular target: T1, Aβ40 (Homo sapiens, UniProt P05067); type: biochemical; conditions: for effect on rate (kinetics) of Aβ aggregation: ThT assay monitored for three days of incubation; for effect on Aβ aggregation (ThT fluorescence): molar ratio of Aβ to peptide or peptide equivalent 1:2, 1:4, 1:6.5, SMOP BSA:KLVFF 1:500, three days, FIG. 2A
T1 construct: incubating fresh monomerized (non-aggregated) solutions of Aβ40
Experimental: In addition, an indirect assay (ThT [Thioflavin T] assay) was performed as follows. […] The fluorescence is measured and correlated to presence of amyloid plaque formations. Agents which bind and inhibit amyloid plaque formation decrease fluorescence of ThT. The inhibitory activity of KLVFF (SEQ ID NO 1)-modified SMOPs on Aβ40 aggregation was determined in black 96-well flat-bottom plates by incubating fresh monomerized (non-aggregated) solutions of Aβ40 (33 micromolar (μM), 15 μl)with different preparations of the SMOPs (25 μl, Table 1) in PBS. PBS was added to reach a volume of 50 μl, giving a final concentration of 10 μM for Aβ40. […] The plates were sealed with aluminum foil and incubated while shaking at 750 rpm at 37° C. for 72 hours to induce aggregation. Following the incubation, a solution of ThT (24 μM, 150 μl) in glycine buffer (50 millimolar (mM), pH 8.5) was added to each well and the fluorescence of amyloid-bound ThT was immediately measured using a plate reader (Infinite M200, Tecan, Switzerland) at excitation and emission wavelengths of 430 and 492 nm, respectively. The ThT solution was freshly prepared by diluting a ThT stock solution (1 mM, in water) with glycine buffer (50 mM, pH 8.5). Experiments were performed in quadruplicate.
To evaluate the inhibitory effect of KLVFF (SEQ ID NO 1)-modified SMOPs on Aβ aggregation and kinetics, soluble Aβ40 (0.5 nanomol, nmol) was incubated in the absence and presence of different preparations of the SMOPs. Amyloid plaque formation was then monitored by a ThT assay for three days of incubation.

PC12 cells = experiment: Reduction of Aβ-induced toxicity in PC12 cells (MTT assay); type: cell-based, rat; conditions: for effect on toxicity of aggregated Aβ in PC12 cells (cell viability, MTT): agent:Aβ40 4:1 (2 nmol : 0.5 nmol), aged 48 hours, cells 24 hours, FIG. 2B
Experimental: Prior to the addition of the SMOPs or soluble peptides to the cells, the extent of Aβ40 aggregation in each sample was determined by ThT assay as described above. On the day of the experiment, the medium was replaced with fresh medium (50 μl) and the aged samples (50 μ) were then diluted by a factor of two in the medium. Control wells received PBS (50 μl) only. Cells were incubated for an additional 24 hours and cell viability was then determined by the MTT assay as described above. Each experiment was performed in quadruplicate and repeated three times.

Aβ40 [2] = molecular target: T1, Aβ40; experiment: TEM analysis of samples taken from the ThT assay; type: biochemical; conditions: 72 hour incubation
FITC-Aβ40 = molecular target: T2, FITC-Aβ40 (Homo sapiens, UniProt P05067); experiment: Direct in vitro binding assay with FITC-Aβ40 (fluorescent microscopy, FACS); conditions: soluble FITC-Aβ40 in PBS at 37° C., after extensive washing; fluorescent microscopy and FACS
T2 construct: incubated with soluble FITC-Aβ40
Experimental: Binding of KLVFF (SEQ ID NO 1)-modified SMOP to Aβ was assessed using a fluorescent modified Aβ known as FITC-Aβ40 (fluorescein isothiocyanate) in a direct in vitro assay. In order to confirm that the conjugated KLVFF (SEQ ID NO 1) fragments on SMOPs preserved their recognition capability to bind full length Aβ following the sonochemical process and SMOP generation, KLVFF (SEQ ID NO 1)-modified SMOPs were incubated with soluble FITC-Aβ40 (25 μ, 0.5 nanomolar, nM) in PBS at 37° C. for different periods under constant agitation (750 revolutions per minute (rpm)). At each time point, samples were diluted with cold PBS and the microspheres were washed twice with cold PBS. Ten thousand particles were then analyzed immediately by FACS.
As controls, proteinaceous SMOP without surface modification (prepared as in example 1A, without the addition of a KLVFF (SEQ ID NO 1) peptide) (naked BSA spheres) were prepared. FVKLF-modified SMOP was also prepared as a control, as in Example 1C.

[3] = Administration of SMOP to rats to demonstrate safety; type: in vivo; conditions: intravenously via tail vein, from 100 μl to highest amount 200 µL, observed 2 weeks; BSA:KLVFF 1:500
Experimental: SMOPs modified with KLVFF (SEQ ID NO 1) (ratio of BSA:KLVFF (SEQ ID NO 1) of 1:500) were used in vivo for toxicological studies. Rats weighing about 250 g each were injected intravenously, via their tail vein, with increasing amounts of the SMOP starting from 100 μl and following an up-down protocol based on the outcome of the initial dose.

[4] = test system: murine microglia (BV-2) cells; experiment: Phagocytosis by murine microglia (BV-2) cells (confocal microscopy, SEM, FACS); type: cell-based; conditions: LPS-treated cells, 30 minutes exposure

T1 sequence (P05067 672-711 limits assumed): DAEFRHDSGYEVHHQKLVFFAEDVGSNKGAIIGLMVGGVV
T2 sequence (P05067 672-711 limits assumed): as above

Row | Compound | formation of Aβ40 fibrils (TEM) (Aβ40 [2]) | effect on rate (kinetics) of Aβ aggregation (Aβ40 [1]) | effect on Aβ aggregation (ThT fluorescence) (Aβ40 [1]) | FITC-Aβ40 accumulated on the surface of the particles (fluorescent signal) (FITC-Aβ40) | effect on toxicity of aggregated Aβ in PC12 cells (cell viability, MTT) (PC12 cells) | effect on uptake of aggregated FITC-Aβ by BV-2 cells [4] | further results
1 | CCCC[C@@H]1NC(=O)[C@@H](CC(C)C)NC(=O)[C@H](CCCCN)NC(=O)[C@@H](CO)NC(=O)[C@H](Cc2c[nH]cn2)NC(=O)[C@@H](Cc2c[nH]c3ccccc23)NC1=O [[lJwHsK], Cyclo-D-leucine-L-noreucine-D-tryptophan-L-histidine-D-serine-L-lysine] (cyclo(K[dL][Nle][dW]H[dS])) |  |  |  |  |  |  | effect on amyloid aggregation / formation (in words) (Aβ40 [1]): drastic effect on amyloid aggregation; reduction of Aβ-induced toxicity in PC12 cells (cyclic peptide) (PC12 cells): effective in reducing Aβ-induced toxicity
2 | FVKLF-modified SMOPs: SMOPs formed with scrambled peptide FVKLFC-NH2 (SEQ ID NO 4); comparator in in vitro studies | no inhibitory effect | no or little effect | no or little effect | significantly lower amount of FITC-Aβ40 was accumulated |  |  | 
3 | KLVFF-NH2 |  |  |  |  | little or no effect on toxicity |  | 
4 | KLVFF-modified SMOP: oil-filled spherical BSA particles with KLVFFC-NH2 (SEQ ID NO 3) attached via disulfide bonds, prepared by sonication | completely arrests the formation of fibrils | dramatically slowed the rate of Aβ aggregation | significantly decreased the aggregation of Aβ in a dose-dependent manner | intense fluorescent signals | significantly reduced |  | immediate toxicity in rats [3]: did not cause immediate toxicity
5 | fucoidan |  |  |  |  |  | reduced the uptake of the aggregated Aβ | 
6 | pertussis toxin [PTX] |  |  |  |  |  | reduced the uptake of the aggregated Aβ | 
